Measurements published in the supplement of paper PMC10567573.

B1: GLT8D2 (parent)
chain: QEAKLLHWNGRHKPWDFPSVHNDL
B2: DVL3 (parent)
chain: FPELGYSYGGGSASSQHSEGSRSS

Variants of: B1
Test: protein stability index of a GFP-peptide fusion (GPS, HEK-293T) (PSI 1-6); higher = more stable
Conditions: c terminus: a fixed tail appended
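Also: lentivirally expressed fusions sorted by FACS into six bins by GFP to DsRed ratio, PSI derived from sequencing read proportions per bin multiplied by bin number.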

Protein stability index, by site and new letter:
G10: C 1.49, Y 2.9, M 2.53, Q 2.7, F 2.37, K 2.48, D 2.46, H 2.48, L 2.42, A 2.75, I 2.48, R 2.79, P 2.69, S 2.69, W 2.5, N 2.8, T 2.49, E 2.8, V 2.15
A3: L 2.59, C 2.23, R 1.95, M 3.06, P 2.33, V 2.5, S 2.69, F 2.25, E 3.51, T 2.75, H 2.83, K 2.59, G 2.6, I 2.24, Q 2.58, N 2.84, Y 2.19, D 3.47, W 2.24
D16: I 2.37, F 1.58, M 2.12, V 2.12, R 2.33, C 1.55, T 2.62, L 2.32, Q 2.48, P 2.46, A 1.96, N 2.42, E 2.69, W 2.5, H 2.09, G 2.39, K 2.26, S 2.46
P14: M 2.36, F 2.45, A 2.62, C 2.06, K 2.69, Q 2.27, V 2.09, Y 2.09, N 2.66, L 2.33, G 2.87, E 3.16, R 2.56, S 2.68, H 2.63, W 2.19, T 2.52, I 2.03, D 3.29
W15: P 3.81, M 3.48, Q 4.37, K 3.27, H 3.17, A 3.7, R 3.55, T 3.3, E 4.14, I 3.02, G 3.76, D 3.59, C 3.22, Y 2.62, V 3.49, F 2.88, N 3.43, L 2.87, S 3.52
N9: Q 2.76, T 2.59, G 2.59, Y 2.33, W 1.75, S 2.67, P 2.56, I 2, V 2.25, H 2.73, M 2.1, D 2.87, A 2.71, E 2.73, C 2.41, F 1.98, K 2.92, L 1.83, R 2.46
K4: I 2.47, Y 2.13, D 2.67, G 2.89, V 2.34, E 3.28, H 2.84, Q 2.5, T 2.92, A 2.81, W 2.7, M 2.64, R 2.87, F 2, P 2.83, L 2.56, N 2.68, C 2.3, S 2.99
Q1: N 2.84, C 1.75, R 2.48, P 2.85, V 2, I 1.69, F 1.65, L 2.1, T 2.49, G 2.65, D 3.54, W 2.21, K 2.49, H 2.35, A 2.68, Y 1.79, S 2.51, E 3.02, M 2.35
L5: S 3.27, D 3.3, W 2.59, P 3.05, Q 2.83, V 2.58, F 2.51, G 3.26, E 3.33, A 3.04, K 3.14, I 2.73, N 2.67, C 2.77, M 2.94, T 2.81, R 2.92, H 2.67, Y 2.45
H12: V 2.61, Q 2.58, C 2.71, A 2.36, W 2.54, Y 2.28, F 2.13, I 2.56, R 2.77, L 2.45, N 2.65, D 3.26, E 3.19, T 2.79, M 2.6, K 2.73, S 2.77, G 2.59, P 2.68
E2: Y 2.04, D 2.65, R 2.17, N 2.48, L 1.96, I 1.78, V 1.89, M 1.45, C 1.97, Q 2.85, W 2.2, T 2.18, S 2.04, F 1.58, H 2.21, K 2.18, P 2.58, A 1.89, G 2.39
H7: C 2.25, S 2.69, K 2.48, Q 2.9, P 2.94, Y 1.85, R 2.81, I 2.25, V 2.1, D 3.16, G 2.63, A 2.87, N 2.54, F 2.41, L 2.15, M 2.56, E 2.98, W 2.84, T 2.88
K13: D 3.73, I 2.35, L 2.26, C 2.29, W 2.29, T 2.84, V 2.1, E 2.92, Y 2.43, H 2.47, N 2.77, S 2.27, M 2.94, R 2.86, A 2.85, P 3.04, F 2.69, G 2.62, Q 2.7
L6: F 2.83, N 2.71, V 2.48, C 2.75, W 2.26, E 3.74, G 2.89, A 2.87, I 2.67, Q 2.76, K 2.52, R 2.85, M 2.3, D 2.79, Y 2.56, H 2.62, S 2.91, P 2.7, T 2.68
W8: I 2.9, Q 3.71, H 2.85, C 3.2, T 3.23, V 3.1, K 2.69, R 3.01, D 3.5, G 3.6, F 2.62, N 3.46, M 2.56, A 3.39, S 3.47, Y 2.42, L 3.24, E 3.47, P 2.63
R11: G 2.64, H 2.64, E 3.58, C 2.55, P 2.33, Y 2.28, L 2.34, S 2.82, V 2.62, T 3.11, W 2.18, M 3.1, I 2.76, A 3.24, F 2.58, D 3.33, K 2.61, Q 3.35, N 3.05

Variants of: B2
Test: as above
Conditions: c terminus: a fixed tail appended

Protein stability index of substitutions, site by site:
S24: D 3.24, T 2.92, Q 3.01, M 2.97, A 3.5, G 3.01, V 2.34, F 2.57, Y 2.58, N 3.56, P 3.93, W 1.95, C 2.99, E 4.02, I 2.37, R 3.69, L 2.94, H 3, K 3.42
S23: P 3.23, Q 3.24, W 2.59, L 2.49, I 3.34, R 3.05, Y 2.49, V 2.63, M 2.33, N 2.91, K 3.05, T 2.46
